Consider 14 substances from patent publication US20250361274A1, “PEPTIDE AND PEPTIDE-CONTAINING AGENT” (PEPTIDREAM INC., priority 2022, published 2025).

The target in one test is T1, BMP4 (Homo sapiens, UniProt P12644).
T1 sequence (P12644 293-408): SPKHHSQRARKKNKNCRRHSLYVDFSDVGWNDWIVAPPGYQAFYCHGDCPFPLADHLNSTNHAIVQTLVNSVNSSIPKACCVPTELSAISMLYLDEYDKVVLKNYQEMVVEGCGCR
Description: BMP4 signal transduction inhibitory activity: SMAD1 phosphorylation by BMP4 stimulus, AlphaLISA SureFire, A549 cells. The conditions noted are these: for aLISA BMP4: inhibition of SMAD1 phosphorylation by BMP4 stimulus, A549 cells. It counts as cell-based.

Another test concerns the target T2, BMP7 (Homo sapiens, UniProt P18075).
T2 sequence (P18075 293-431): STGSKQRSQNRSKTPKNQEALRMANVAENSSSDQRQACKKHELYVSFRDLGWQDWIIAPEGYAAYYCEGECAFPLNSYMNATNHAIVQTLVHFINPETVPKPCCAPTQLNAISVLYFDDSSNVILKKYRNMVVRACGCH
Description: BMP7 signal transduction inhibitory activity: SMAD1 phosphorylation by BMP7 stimulus, A549 cells. It counts as cell-based. The conditions noted are these: for aLISA BMP7: inhibition of SMAD1 phosphorylation by BMP7 stimulus, A549 cells. In outline: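 Inhibition is read as reduced BMP7-driven SMAD1 phosphorylation in human A549 cells, with the BMP7 stimulus at 10 nM. Three-point peptide concentrations spanned 1–1,000 nM depending on the peptide series. Some peptides received eight-point, 1/3-ratio titrations from 100 nM or 1,000 nM, alongside a Noggin control.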

The mark [1] stands for this setting: BMP4 0.2 nM stimulus, peptide conc. in assay 0.2, 2, 20 nM.
Where [2] appears, read: BMP7 10 nM stimulus, peptide conc. in assay 1, 10, 100 nM.
The mark [3] stands for this setting: BMP4 0.2 nM stimulus, peptide conc. in assay 0.02, 0.2, 2 nM, class symbols.
Where [4] appears, read: BMP4 0.2 nM, peptide 0.02, 0.2, 2 nM, Table 6.
[5] abbreviates: BMP7 10 nM, peptide 10, 100, 1000 nM, Table 6.
Setting [6] is: AlphaLISA, class by peptide concentration zone.
[7] abbreviates: BMP7 10 nM stimulus, peptide conc. in assay 100, 300, 1000 nM, class symbols.
Setting [8] is: SMAD1 phosphorylation, BMP4 0.2 nM, peptide conc. in assay 0.2, 2, 20 nM.
Where [9] appears, read: SMAD1 phosphorylation, BMP7 10 nM, peptide conc. in assay 1, 10, 100 nM.

Numbered stars: 1 amine (or outer) side, 2 acyl side, 3 side chain; on linkers, the order of the positions; unused ones are H or OH. Bridge positions count the residues as written; N and C are the ends. Square brackets hold non-standard residues; d marks the D form. Ends that are not written are not given here. KCOpipzaa = N6-(4-(carboxymethyl)piperazine-1-carbonyl)-L-lysine, O=C(NCCCC[C@H](N[*:1])C(=O)[*:2])N1CCN(CC(=O)[*:3])CC1; Bph3C = (S)-2-amino-3-(3'-chloro-[1,1'-biphenyl]-4-yl)propanoic acid, O=C([C@H](Cc1ccc(-c2cccc(Cl)c2)cc1)N[*:1])[*:2]; Bph3F = (S)-2-amino-3-(3'-fluoro-[1,1'-biphenyl]-4-yl)propanoic acid, O=C([C@H](Cc1ccc(-c2cccc(F)c2)cc1)N[*:1])[*:2]; Cha4tH = (S)-2-amino-3-((1r,4S)-4-hydroxycyclohexyl)propanoic acid, O=C([C@H](C[C@H]1CC[C@H](O[*:3])CC1)N[*:1])[*:2]; pBph2F = (S)-2-amino-3-(2-fluoro-[1,1'-biphenyl]-4-yl)propanoic acid, O=C([C@H](Cc1ccc(-c2ccccc2)c(F)c1)N[*:1])[*:2]; 3Pal(6-Ph) = N[C@@H](Cc1ccc(-c2ccccc2)nc1)C(=O)O; Phe(4-COOH) = N[C@@H](Cc1ccc(C(=O)O)cc1)C(=O)O; NMePhe(4-Me) = CN[C@@H](Cc1ccc(C)cc1)C(=O)O; Bip = N[C@@H](Cc1ccc(-c2ccccc2)cc1)C(=O)O; Phe(4-F) = N[C@@H](Cc1ccc(F)cc1)C(=O)O; Ala(4-THP) = N[C@@H](CC1CCOCC1)C(=O)O; Hyp = O=C(O)[C@@H]1C[C@@H](O)CN1; NMeF = CN[C@@H](Cc1ccccc1)C(=O)O; 4Pal = N[C@@H](Cc1ccncc1)C(=O)O; Aad = N[C@@H](CCCC(=O)O)C(=O)O; Cha = N[C@@H](CC1CCCCC1)C(=O)O; Cba = N[C@@H](CC1CCC1)C(=O)O; Abu = CC[C@H](N)C(=O)O; βAla = NCCC(=O)O

Take “413 ([Phe(4-F)]G[NMeF]G[3Pal(6-Ph)]GDE[Cha][Aad][NMePhe(4-Me)]L[Phe(4-COOH)]C[βAla][dE]) [compound 413]”: the “aLISA BMP4 (0.2 nM) % inh” value in the test with BMP4 (setting [1]) is given as “ND (the inhibitory activity was less than 30% at the maximum concentration evaluated)”. For the same substance, the “aLISA BMP7 (10 nM) % inh” value with BMP7 (setting [2]) was “D (showed less than 30% of inhibitory activity in 10 nM-addition zone and showed 30% or more of inhibitory activity in 100 nM-addition zone)”.

Turning to “377 (FG[NMeF]G[4Pal]GDD[Cha]A[NMeF]LHCG-NH2; not fully specified) [compound 377]”, the “aLISA BMP4 (0.2 nM) % inh” value in the test with BMP4 (BMP4 0.2 nM stimulus, peptide conc. in assay 2, 20, 200 nM) is “ND (the inhibitory activity was less than 30% at the maximum concentration evaluated)”. For the same substance, the “aLISA BMP7 (10 nM) % inh” value with BMP7 (BMP7 10 nM stimulus, peptide conc. in assay 10, 30, 90 nM) was “F (showed less than 30% of inhibitory activity in 10 nM-addition zone and showed 30% or more of inhibitory activity in 30 nM-addition zone)”.

Consider “302 (ERV[Phe(4-COOH)]V[KCOpipzaa]R[3Pal(6-Ph)][KCOpipzaa]Y[Hyp][pBph2F]Y[Phe(4-COOH)][Phe(4-COOH)]SCG-NH2; not fully specified (N-terminus, bridges); also: cyclic peptide, ring closure not given here) [compound 302]”, for which the “aLIZA BMP4 (0.2 nM) % inh” value in the test with BMP4 (setting [3]) is “C (showed less than 30% of inhibitory activity in 0.2 nM-addition zone and showed 30% or more of inhibitory activity in 2 nM-addition zone)”. Besides, in the test with BMP7 (BMP7 10 nM stimulus, peptide conc. in assay 10, 100, 1000 nM, class symbols), the “aLIZA BMP7 (10 nM) % inh” value is “E (showed less than 30% of inhibitory activity in 100 nM-addition zone and showed 30% or more of inhibitory activity in 1,000 nM-addition zone)”.

As for “320 (ERV[Phe(4-COOH)][Cha4tH][KCOpipzaa]R[3Pal(6-Ph)][KCOpipzaa]Y[Hyp][Bph3F][4Pal][Phe(4-COOH)][Phe(4-COOH)]SCG-NH2; not fully specified) [compound 320]”, in the test with BMP4 (setting [4]), the “aLIZA BMP4 (0.2 nM) % inh” value was “B (showed less than 30% of inhibitory activity in 0.02 nM-addition zone and showed 30% or more of inhibitory activity in 0.2 nM-addition zone)”. The “aLIZA BMP7 (10 nM) % inh” value with BMP7 (setting [5]) was “E (showed less than 30% of inhibitory activity in 100 nM-addition zone and showed 30% or more of inhibitory activity in 1,000 nM-addition zone)”.

For the substance “63 (Ac-E[KCOpipzaa]VYVDR[Bip]PYP[Bip]Y[Phe(4-COOH)][Phe(4-COOH)]SCG-NH2; thioether (positions not given here); not fully specified (bridges)) [compound 63]”, the “aLISA BMP4” value in the test with BMP4 (setting [6]) is listed as “A (showed an inhibitory activity of 50% or more in a zone to which the peptide was added to in an amount of 0.2 nM)”. Further, in the test with BMP7 (setting [6]), the “aLISA BMP7” value is “C (showed less than 50% of inhibitory activity in 10 nM-addition zone and showed 50% or more of inhibitory activity in 100 nM-addition zone)”.

In the case of “287 (ERV[Phe(4-COOH)][Ala(4-THP)][KCOpipzaa]R[3Pal(6-Ph)][KCOpipzaa]Y[Hyp][Bip][4Pal][Phe(4-COOH)][Phe(4-COOH)]SCG-NH2; not fully specified (N-terminus, bridges); also: cyclic peptide, ring not given here) [compound 287]”, in the test with BMP4 (setting [3]), the “aLIZA BMP4 (0.2 nM) % inh” value is “C (showed less than 30% of inhibitory activity in 0.2 nM-addition zone and showed 30% or more of inhibitory activity in 2 nM-addition zone)”. The “aLIZA BMP7 (10 nM) % inh” value with BMP7 (setting [7]) is “H (showed less than 30% of inhibitory activity in 300 nM-addition zone and showed 30% or more of inhibitory activity in 1,000 nM-addition zone)”.

As to “283 (ERV[Phe(4-COOH)]V[KCOpipzaa]R[3Pal(6-Ph)][KCOpipzaa]Y[Hyp][Bip][4Pal][Phe(4-COOH)][Phe(4-COOH)]SC[βAla]) [compound 283]”, the “aLIZA BMP4 (0.2 nM) % inh” value with BMP4 (setting [3]) is “B (showed less than 30% of inhibitory activity in 0.02 nM-addition zone and showed 30% or more of inhibitory activity in 0.2 nM-addition zone)”. Also, the “aLIZA BMP7 (10 nM) % inh” value in the test with BMP7 (setting [7]) is “H (showed less than 30% of inhibitory activity in 300 nM-addition zone and showed 30% or more of inhibitory activity in 1,000 nM-addition zone)”.

As for “352 (FG[NMeF]G[Bip]GDD[Cha]A[NMeF]LGCG-NH2; not fully specified (N-terminus, bridges); also: cyclic peptide, ring closure not given here) [compound 352]”, the “aLISA BMP4 (0.2 nM) % inh” value in the test with BMP4 (setting [8]) is “ND (the inhibitory activity was less than 30% at the maximum concentration evaluated)”. In addition, the “aLISA BMP7 (10 nM) % inh” value with BMP7 (setting [9]) was “D (showed less than 30% of inhibitory activity in 10 nM-addition zone and showed 30% or more of inhibitory activity in 100 nM-addition zone)”.

Consider “405 (FG[NMeF]G[Bip]GDE[Cha]Q[NMeF]L[Phe(4-COOH)]CG; not fully specified) [compound 405]”, for which the “aLISA BMP4 (0.2 nM) % inh” value with BMP4 (setting [1]) was “ND (the inhibitory activity was less than 30% at the maximum concentration evaluated)”. For the same substance, the “aLISA BMP7 (10 nM) % inh” value in the test with BMP7 (setting [2]) was “D (showed less than 30% of inhibitory activity in 10 nM-addition zone and showed 30% or more of inhibitory activity in 100 nM-addition zone)”.

Take “132 ({CH2CO}-ERVYVSR[Bip]PYV[Bip]Y[Phe(4-COOH)][Phe(4-COOH)]SCG-NH2; thioether N-17; not fully specified) [compound 132]”: the “aLISA BMP4” value with BMP4 (peptides of Synthesis 1, classes D-F, ND) is “E (showed less than 50% of inhibitory activity in 0.2 nM-addition zone and showed 50% or more of inhibitory activity in 2 nM-addition zone)”. Further, the “aLISA BMP7” value with BMP7 (peptides of Synthesis 1, classes E, F, ND) is reported as “ND (the inhibitory activity was less than 30% at the maximum concentration evaluated)”.

Take “317 (ERV[Phe(4-COOH)][Cba][KCOpipzaa]R[3Pal(6-Ph)][KCOpipzaa]Y[Hyp][Bph3C][4Pal][Phe(4-COOH)][Phe(4-COOH)]SCG-NH2; not fully specified) [compound 317]”: the “aLIZA BMP4 (0.2 nM) % inh” value with BMP4 (setting [4]) was “B (showed less than 30% of inhibitory activity in 0.02 nM-addition zone and showed 30% or more of inhibitory activity in 0.2 nM-addition zone)”. Besides, the “aLIZA BMP7 (10 nM) % inh” value with BMP7 (setting [5]) is reported as “ND (the inhibitory activity was less than 30% at the maximum concentration evaluated)”.

Regarding “339 (FG[NMeF]G[Bip]GDD[Cha][Abu][NMeF]LHCG-NH2; not fully specified (N-terminus, bridges)) [compound 339]”, in the test with BMP4 (setting [8]), the “aLISA BMP4 (0.2 nM) % inh” value is reported as “ND (the inhibitory activity was less than 30% at the maximum concentration evaluated)”. Besides, the “aLISA BMP7 (10 nM) % inh” value with BMP7 (setting [9]) is “D (showed less than 30% of inhibitory activity in 10 nM-addition zone and showed 30% or more of inhibitory activity in 100 nM-addition zone)”.

For the substance “50 (Ac-ARVYVDR[Bip]PYP[Bip]Y[Phe(4-COOH)][Phe(4-COOH)]SC[βAla]K(OCOmPEG10000)-NH2; thioether (positions not given here); not fully specified (bridges)) [compound 50]”, the “aLISA BMP4” value with BMP4 (setting [6]) is on record as “D (showed inhibitory activity of less than 50% in 2 nM-addition zone)”. Also, the “aLISA BMP7” value with BMP7 (setting [6]) is “B (showed less than 50% of inhibitory activity in 1 nM-addition zone and showed 50% or more of inhibitory activity in 10 nM-addition zone)”.

For “355 (FG[NMeF]G[Bip]GDD[Cha]A[NMeF]L[Hyp]CG-NH2; not fully specified (N-terminus, bridges)) [compound 355]”, the “aLISA BMP4 (0.2 nM) % inh” value with BMP4 (setting [8]) was “A (showed less than 30% of inhibitory activity in 2 nM-peptide-addition zone and showed 30% or more of inhibitory activity in 20 nM-addition zone)”. Further, the “aLISA BMP7 (10 nM) % inh” value with BMP7 (setting [9]) is “D (showed less than 30% of inhibitory activity in 10 nM-addition zone and showed 30% or more of inhibitory activity in 100 nM-addition zone)”.
